Measurements: US20170298096A1 (CANIMGUIDE THERAPEUTICS, published 2017)
No end group written: not given here.

T1: His-tagged P3028 (human, also: His-tag, terminus and sequence not given here)
T1 construct: in solution at 0.5 ug/mL over the peptide cards; found with anti-His-tag antibody and rabbit anti-mouse peroxidase (rampo); also called PGE73; not shown: His-tag
T1 peptide: VFDEFKPLVEEPQNLIK

B1: SEQ ID NO 295 (peptide)
peptide: KKSDTFFVKLSLFTER
B2: SEQ ID NO 302 (peptide)
peptide: KKLWTFFVKLSLFTER
B3: SEQ ID NO 314 (peptide)
peptide: KKLDTIFVKLSLFTER
B4: SEQ ID NO 313 (peptide)
peptide: KKLDTAFVKLSLFTER
B5: SEQ ID NO 298 (peptide)
peptide: KKLATFFVKLSLFTER
B6: SEQ ID NO 297 (peptide)
peptide: KKVDTFFVKLSLFTER
B7: SEQ ID NO 299 (peptide)
peptide: KKLETFFVKLSLFTER
B8: SEQ ID NO 311 (peptide)
peptide: KKLDWFFVKLSLFTER
B9: SEQ ID NO 316 (peptide)
peptide: KKLDTNFVKLSLFTER
B10: SEQ ID NO 304 (peptide)
peptide: KKLDCFFVKLSLFTER
B11: SEQ ID NO 310 (peptide)
peptide: KKLDSFFVKLSLFTER
B12: SEQ ID NO 320 (peptide)
peptide: KKLDTFLVKLSLFTER
B13: SEQ ID NO 308 (peptide)
peptide: KKLDQFFVKLSLFTER
B14: SEQ ID NO 300 (peptide)
peptide: KKLITFFVKLSLFTER
B15: SEQ ID NO 312 (peptide)
peptide: KKLDYFFVKLSLFTER
B16: SEQ ID NO 305 (peptide)
peptide: KKLDMFFVKLSLFTER
B17: SEQ ID NO 321 (peptide)
peptide: KKLDTFMVKLSLFTER
B18: SEQ ID NO 309 (peptide)
peptide: KKLDRFFVKLSLFTER
B19: SEQ ID NO 306 (peptide)
peptide: KKLDNFFVKLSLFTER
B20: SEQ ID NO 317 (peptide)
peptide: KKLDTPFVKLSLFTER
B21: SEQ ID NO 319 (peptide)
peptide: KKLDTVFVKLSLFTER
B22: SEQ ID NO 318 (peptide)
peptide: KKLDTTFVKLSLFTER
B23: SEQ ID NO 307 (peptide)
peptide: KKLDPFFVKLSLFTER
B24: SEQ ID NO 303 (peptide)
peptide: KKLYTFFVKLSLFTER
B25: SEQ ID NO 296 (peptide)
peptide: KKTDTFFVKLSLFTER
B26: SEQ ID NO 315 (peptide)
peptide: KKLDTMFVKLSLFTER

Biological target: T1, His-tagged P3028
Test: PEPSCAN chip ELISA, His-P3028 in solution;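 further: score is the raw OD at 405 nm from peroxidase colour with ABTS, imaged by CCD camera before and after staining, with wells showing air bubbles set to zero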

| Binder | RAMPO Score [rampo score] |
| --- | --- |
| B1 | 393 |
| B2 | 443 |
| B3 | 466 |
| B4 | 575 |
| B5 | 494 |
| B6 | 377 |
| B7 | 417 |
| B8 | 418 |
| B9 | 446 |
| B10 | 449 |
| B11 | 458 |
| B12 | 517 |
| B13 | 535 |
| B14 | 430 |
| B15 | 425 |
| B16 | 475 |
| B17 | 712 |
| B18 | 430 |
| B19 | 436 |
| B20 | 497 |
| B21 | 547 |
| B22 | 481 |
| B23 | 427 |
| B24 | 422 |
| B25 | 451 |
| B26 | 467 |
